Results from PMC7046727.

Key:
[1] = target: sLif_(Y99A), variant of soluble P. aeruginosa Lif with Y99 mutated to alanine (Pseudomonas aeruginosa); test: other fluorescence titration; sLif / sLif_(Y99A) labelled with BDP FL (1.2 nM label, total about 24 nM) with 0-50 uM LipA overnight at 4 °C in 10 mM glycine buffer pH 9; steady-state anisotropy and average translational diffusion time (FCS) on a confocal microscope (sLif_(Y99A): diffusion time only); 1:1 binding model; apparent KD
[2] = target: sLif, soluble form of Pseudomonas aeruginosa lipase-specific foldase Lif that lacks the transmembrane domain (TMD) (Pseudomonas aeruginosa); test: as above

lipase LipA of Pseudomonas aeruginosa, pre-active form refolded in vitro (enzyme)
Kd [1]: 0.077 µM
Kd [2]: 0.029 µM
